Data: paper PMC9482650, “Quantitative fragmentomics allow affinity mapping of interactomes” (Nature Communications, 2022)

Legend:
Experiment in all cases: holdup assay
Design in all cases: key: below the threshold = too weak to quantify, mostly under pKd 3.1 to 4
ARHGAP21, Q5T5U3 = target: T1, ARHGAP21, Q5T5U3
T1 sequence (Q5T5U3 45-169, limits assumed, looked up): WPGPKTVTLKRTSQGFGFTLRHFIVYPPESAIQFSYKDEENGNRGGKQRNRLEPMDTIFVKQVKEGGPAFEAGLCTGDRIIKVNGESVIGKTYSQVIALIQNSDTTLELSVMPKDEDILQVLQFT

DFNB31_1, Q9P202 = target: T2, DFNB31_1, Q9P202
T2 sequence (Q9P202 135-233, limits assumed, looked up): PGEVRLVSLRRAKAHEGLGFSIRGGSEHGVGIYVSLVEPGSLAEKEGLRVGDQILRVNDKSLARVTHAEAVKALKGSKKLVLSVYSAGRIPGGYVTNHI

DLG2_3, Q15700 = target: DLG2_3, Q15700
FRMPD2_1, Q68DX3 = target: FRMPD2_1, Q68DX3
Chain of FRMPD2_1, Q68DX3 (Q68DX3 770-861): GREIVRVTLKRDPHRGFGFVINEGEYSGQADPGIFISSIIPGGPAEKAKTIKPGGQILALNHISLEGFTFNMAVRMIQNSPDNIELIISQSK

FRMPD3, Q5JV73 = target: FRMPD3, Q5JV73
Chain of FRMPD3, Q5JV73 (Q5JV73 12-100): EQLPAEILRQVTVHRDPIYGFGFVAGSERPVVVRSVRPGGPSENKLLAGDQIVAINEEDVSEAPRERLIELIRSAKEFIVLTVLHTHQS

GIPC2, Q8TF65 = target: GIPC2, Q8TF65
Chain of GIPC2, Q8TF65 (Q8TF65 112-203): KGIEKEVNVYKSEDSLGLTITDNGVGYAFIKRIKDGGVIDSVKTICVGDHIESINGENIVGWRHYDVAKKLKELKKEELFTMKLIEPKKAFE

GOPC, Q9HD26 = target: GOPC, Q9HD26
GORASP2, Q9H8Y8 = target: GORASP2, Q9H8Y8
GRID2IP_2, A4D2P6 = target: GRID2IP_2, A4D2P6
Chain of GRID2IP_2, A4D2P6 (A4D2P6 272-370): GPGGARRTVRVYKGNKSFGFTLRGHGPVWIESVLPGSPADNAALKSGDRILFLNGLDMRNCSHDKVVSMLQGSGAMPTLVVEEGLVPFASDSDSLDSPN

GRIP1_7, Q9Y3R0 = target: T3, GRIP1_7, Q9Y3R0
T3 sequence (Q9Y3R0 999-1096, limits assumed, looked up): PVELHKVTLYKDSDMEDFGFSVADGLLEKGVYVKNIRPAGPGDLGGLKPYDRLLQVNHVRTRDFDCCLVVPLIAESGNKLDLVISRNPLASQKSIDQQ

HTRA3, P83110 = target: T4, HTRA3, P83110
T4 sequence (P83110 354-453, limits assumed, looked up): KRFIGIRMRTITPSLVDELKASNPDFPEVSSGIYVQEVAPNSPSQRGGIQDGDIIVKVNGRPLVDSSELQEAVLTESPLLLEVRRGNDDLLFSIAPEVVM

Inadl_1, Q8NI35 = target: Inadl_1, Q8NI35
Chain of Inadl_1, Q8NI35 (Q8NI35 113-229): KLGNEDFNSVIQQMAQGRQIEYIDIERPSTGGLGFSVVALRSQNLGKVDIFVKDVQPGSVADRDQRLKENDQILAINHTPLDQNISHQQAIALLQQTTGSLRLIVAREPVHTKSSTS

Inadl_3, Q8NI35 = target: Inadl_3, Q8NI35
Chain of Inadl_3, Q8NI35 (Q8NI35 359-469): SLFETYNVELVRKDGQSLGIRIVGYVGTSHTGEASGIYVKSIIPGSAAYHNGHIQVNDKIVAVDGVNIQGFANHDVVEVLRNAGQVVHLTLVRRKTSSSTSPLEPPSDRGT

Inadl_5, Q8NI35 = target: Inadl_5, Q8NI35
Chain of Inadl_5, Q8NI35 (Q8NI35 673-780): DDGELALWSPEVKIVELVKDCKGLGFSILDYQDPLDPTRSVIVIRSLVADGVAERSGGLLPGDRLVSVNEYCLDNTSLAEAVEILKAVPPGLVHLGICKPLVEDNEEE

LAP2, Q96RT1 = target: LAP2, Q96RT1
Chain of LAP2, Q96RT1 (Q96RT1 other isoform, or with tags, fused parts or gaps): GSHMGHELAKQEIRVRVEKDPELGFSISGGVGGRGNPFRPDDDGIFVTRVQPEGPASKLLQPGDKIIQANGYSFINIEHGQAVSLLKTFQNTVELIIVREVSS

LIN7C, Q9NUP9 = target: T5, LIN7C, Q9NUP9
T5 sequence (Q9NUP9 88-185, limits assumed, looked up): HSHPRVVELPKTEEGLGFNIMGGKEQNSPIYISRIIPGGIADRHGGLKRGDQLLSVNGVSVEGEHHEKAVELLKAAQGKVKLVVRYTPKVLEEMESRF

LNX2_3, Q8N448 = target: T6, LNX2_3, Q8N448
T6 sequence (Q8N448 463-564, limits assumed, looked up): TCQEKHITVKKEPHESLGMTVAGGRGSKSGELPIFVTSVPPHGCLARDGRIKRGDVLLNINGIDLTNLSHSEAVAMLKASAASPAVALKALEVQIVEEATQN

MPDZ_5, O75970 = target: T7, MPDZ_5, O75970
T7 sequence (O75970 695-796, limits assumed, looked up): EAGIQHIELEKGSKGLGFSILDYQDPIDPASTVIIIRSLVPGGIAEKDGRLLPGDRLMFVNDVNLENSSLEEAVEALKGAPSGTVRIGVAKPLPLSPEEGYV

NHERF2_2, Q15599 = target: NHERF2_2, Q15599
Chain of NHERF2_2, Q15599 (Q15599 142-238): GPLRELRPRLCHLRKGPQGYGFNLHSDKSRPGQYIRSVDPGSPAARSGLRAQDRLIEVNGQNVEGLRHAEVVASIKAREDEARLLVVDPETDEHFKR

PARD3B_1, Q8TEW8 = target: T8, PARD3B_1, Q8TEW8
T8 sequence (Q8TEW8 196-299, limits assumed, looked up): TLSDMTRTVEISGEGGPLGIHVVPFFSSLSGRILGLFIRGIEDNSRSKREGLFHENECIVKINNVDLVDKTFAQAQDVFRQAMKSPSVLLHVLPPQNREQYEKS

PDZD2_2, O15018 = target: T9, PDZD2_2, O15018
T9 sequence (O15018 329-429, limits assumed, looked up): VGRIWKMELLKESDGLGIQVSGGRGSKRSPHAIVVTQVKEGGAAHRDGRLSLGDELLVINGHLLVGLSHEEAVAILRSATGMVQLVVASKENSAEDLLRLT

SCRIB_2, Q14160 = target: SCRIB_2, Q14160
Chain of SCRIB_2, Q14160 (Q14160 857-960): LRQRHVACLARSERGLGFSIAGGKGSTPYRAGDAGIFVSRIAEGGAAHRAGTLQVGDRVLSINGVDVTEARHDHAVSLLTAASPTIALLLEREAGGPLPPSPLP

SNTA1, Q13424 = target: T10, SNTA1, Q13424
T10 sequence (Q13424 82-180, limits assumed, looked up): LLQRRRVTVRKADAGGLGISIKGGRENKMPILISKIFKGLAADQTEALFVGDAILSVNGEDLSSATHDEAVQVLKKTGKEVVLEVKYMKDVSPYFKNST

TJP1_2, Q07157 = target: TJP1_2, Q07157
Chain of TJP1_2, Q07157 (Q07157 181-274): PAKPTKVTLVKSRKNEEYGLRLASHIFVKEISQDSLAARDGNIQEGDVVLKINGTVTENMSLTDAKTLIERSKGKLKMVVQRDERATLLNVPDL

TX1BP3, O14907 = target: T11, TX1BP3, O14907
T11 sequence (O14907 10-122, limits assumed, looked up): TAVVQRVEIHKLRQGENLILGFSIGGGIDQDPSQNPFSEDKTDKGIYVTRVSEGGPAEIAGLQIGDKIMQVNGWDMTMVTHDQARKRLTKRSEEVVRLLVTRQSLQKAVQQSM

[1] = plain residues with an end cap or a label only (N-terminal biotin on a linker: ado-ado)
[2] = modified: phospho on T at position -2 from the C-terminal residue

B1: GRIK2, Q13002 (peptide)
chain: RRLPGKETMA
For B1, the pKd (ARHGAP21, Q5T5U3; [1]) was “below the threshold”, the pKd (DFNB31_1, Q9P202; [1]) was “below the threshold” and the pKd (DLG2_3, Q15700; [1]) was 3.8. The pKd (FRMPD2_1, Q68DX3; [1]) was “below the threshold”, the pKd (FRMPD3, Q5JV73; [1]) was “below the threshold” and the pKd (GIPC2, Q8TF65; [1]) was “below the threshold”. The pKd (GOPC, Q9HD26; [1]) was “below the threshold”, the pKd (GORASP2, Q9H8Y8; [1]) was 3.55 and the pKd (GRID2IP_2, A4D2P6; [1]) was “below the threshold”. The pKd (GRIP1_7, Q9Y3R0; [1]) was “below the threshold”, the pKd (HTRA3, P83110; [1]) was “below the threshold” and the pKd (Inadl_1, Q8NI35; [1]) was “below the threshold”. For the same binder, the pKd (Inadl_3, Q8NI35; [1]) was “below the threshold”, the pKd (Inadl_5, Q8NI35; [1]) was “below the threshold” and the pKd (LAP2, Q96RT1; [1]) was “below the threshold”. The pKd (LIN7C, Q9NUP9; [1]) was “below the threshold”, the pKd (LNX2_3, Q8N448; [1]) was “below the threshold” and the pKd (MPDZ_5, O75970; [1]) was “below the threshold”. For the same binder, the pKd (NHERF2_2, Q15599; [1]) was “below the threshold”, the pKd (PARD3B_1, Q8TEW8; [1]) was “below the threshold” and the pKd (PDZD2_2, O15018; [1]) was “below the threshold”. For the same binder, the pKd (SCRIB_2, Q14160; [1]) was “below the threshold”, the pKd (SNTA1, Q13424; [1]) was “below the threshold” and the pKd (TJP1_2, Q07157; [1]) was “below the threshold”. The pKd (TX1BP3, O14907; [1]) was “below the threshold”.

B2: HPV35-E6_-2P, P27228 (peptide)
chain: SKPTRRETEV
B2 was tested, and the pKd (ARHGAP21, Q5T5U3; [2]) was 4.08, the pKd (DFNB31_1, Q9P202; [2]) was “below the threshold” and the pKd (DLG2_3, Q15700; [2]) was 3.52. The pKd (FRMPD2_1, Q68DX3; [2]) was “below the threshold”, the pKd (FRMPD3, Q5JV73; [2]) was “below the threshold” and the pKd (GIPC2, Q8TF65; [2]) was “below the threshold”. For the same binder, the pKd (GOPC, Q9HD26; [2]) was “below the threshold”, the pKd (GORASP2, Q9H8Y8; [2]) was “below the threshold” and the pKd (GRID2IP_2, A4D2P6; [2]) was “below the threshold”. The pKd (GRIP1_7, Q9Y3R0; [2]) was “below the threshold”, the pKd (HTRA3, P83110; [2]) was “below the threshold” and the pKd (Inadl_1, Q8NI35; [2]) was “below the threshold”. The pKd (Inadl_3, Q8NI35; [2]) was “below the threshold”, the pKd (Inadl_5, Q8NI35; [2]) was “below the threshold” and the pKd (LAP2, Q96RT1; [2]) was “below the threshold”. The pKd (LIN7C, Q9NUP9; [2]) was 4.05, the pKd (LNX2_3, Q8N448; [2]) was “below the threshold” and the pKd (MPDZ_5, O75970; [2]) was “below the threshold”. For the same binder, the pKd (NHERF2_2, Q15599; [2]) was “below the threshold”, the pKd (PARD3B_1, Q8TEW8; [2]) was “below the threshold” and the pKd (PDZD2_2, O15018; [2]) was “below the threshold”. For the same binder, the pKd (SCRIB_2, Q14160; [2]) was “below the threshold”, the pKd (SNTA1, Q13424; [2]) was “below the threshold” and the pKd (TJP1_2, Q07157; [2]) was “below the threshold”. The pKd (TX1BP3, O14907; [2]) was 4.07.

B3: DCAF7, P61962 (peptide)
chain: YNNCLEILRV
B3 was tested, and the pKd (ARHGAP21, Q5T5U3; [1]) was “below the threshold”, the pKd (DFNB31_1, Q9P202; [1]) was “below the threshold” and the pKd (DLG2_3, Q15700; [1]) was “below the threshold”. For the same binder, the pKd (FRMPD2_1, Q68DX3; [1]) was “below the threshold”, the pKd (FRMPD3, Q5JV73; [1]) was “below the threshold” and the pKd (GIPC2, Q8TF65; [1]) was “below the threshold”. The pKd (GOPC, Q9HD26; [1]) was “below the threshold”, the pKd (GORASP2, Q9H8Y8; [1]) was 5.55 and the pKd (GRID2IP_2, A4D2P6; [1]) was “below the threshold”. For the same binder, the pKd (GRIP1_7, Q9Y3R0; [1]) was “below the threshold”, the pKd (HTRA3, P83110; [1]) was “below the threshold” and the pKd (Inadl_1, Q8NI35; [1]) was “below the threshold”. The pKd (Inadl_3, Q8NI35; [1]) was “below the threshold”, the pKd (Inadl_5, Q8NI35; [1]) was “below the threshold” and the pKd (LAP2, Q96RT1; [1]) was “below the threshold”. For the same binder, the pKd (LIN7C, Q9NUP9; [1]) was “below the threshold”, the pKd (LNX2_3, Q8N448; [1]) was “below the threshold” and the pKd (MPDZ_5, O75970; [1]) was “below the threshold”. For the same binder, the pKd (NHERF2_2, Q15599; [1]) was “below the threshold”, the pKd (PARD3B_1, Q8TEW8; [1]) was 4.01 and the pKd (PDZD2_2, O15018; [1]) was “below the threshold”. For the same binder, the pKd (SCRIB_2, Q14160; [1]) was “below the threshold”, the pKd (SNTA1, Q13424; [1]) was “below the threshold” and the pKd (TJP1_2, Q07157; [1]) was 4.25. The pKd (TX1BP3, O14907; [1]) was “below the threshold”.
